For assay [1], the target named is constitutively active Flag-Rab4 variant (Drosophila). Kind of assay: co-IP.
The target in assay [2] is dominant negative Flag-Rab4 variant (Drosophila). Kind of assay: co-IP.

B1: Myc-RhoGAP68F (natural protein)
chain: MDAHSRFAPRLPGPAINPIVDNSDEPQPSLSDLHDFEPKLEFDDTELLAPSPLEKDVMVGDFVLAEDPELEPEEDVNPLEDDFEDQLREQSENFQTPRNKCDFLGTDKQGRHIFGIYASRFPEKSQLEGFVREIIKEIEPFVENDYILVYFHQGLKEDNKPSAQFLWNSYKELDRNFRKNLKTLYVVHPTWFIRVIWNFFSPFISDKFRKKLVYISSLDELRQALGLNKLKLPDNICDLDDKLNPSRKPSTPPPSSNINASRQQQHKMATTHQFGVPLKFIVMNSPCLNSIPPIVRKCVDSLSITGVIDTEGIFRRSGNHSEIMALKERVNRGEDVDLKSVNVHVIAGLLKSFLRDLAEPLLTFELYEDVTGFLDWPKEERSRNVTQLIREKLPEENYELFKYIVEFLVRVMDCEDLNKMTSSNLAIVFGPNFLWSRSTSTSLEEIAPINAFVDFVLQNHKDIYLIDVNQRTVSVD
As for B1, the fold stronger association than with wild type Flag-Rab4 in assay [1] is 3.26 fold. The same molecule displayed a fold weaker association than with wild type Flag-Rab4 in assay [2] of 2.88 fold.
